Laboratory results taken from paper doi:10.1101/2023.07.16.549178.

Molecular target: F-actin (UniProt P68135)
Test: cryoEM (raw images and 2D image averages); full-length myosin-5a with F-actin free in solution, flash frozen in the presence of ATP, low calcium concentration, no cargo adaptor molecules; 1 myosin molecule per 2.5 actin subunits

full-length myosin-5a (from UniProt Q99104 1-1853; P0DP26 1-149) (complex)
percent of myosin molecules attached (from counts per um actin): < 10%
percent of observed myosin molecules attached by both heads to one actin filament: 55%
